Source: patent US20190367620A1 (Merck KGaA, published 2019)
Residue numbers refer to the chain shown, from its start.

How the values were obtained:
Experiment in all cases: SPR; free energy change relative to wild-type D2
Human FGFR1 D2-His6 = target: T1, Human FGFR1 D2-His6 (human, UniProt P11362 22-254)
T1 construct: also called D2 domain; F3FR1c-D2
T1 sequence: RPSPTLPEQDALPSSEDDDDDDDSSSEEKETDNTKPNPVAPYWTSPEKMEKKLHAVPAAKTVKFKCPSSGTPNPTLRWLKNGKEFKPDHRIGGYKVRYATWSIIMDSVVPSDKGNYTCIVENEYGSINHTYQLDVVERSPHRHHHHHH
Protocol: (§1) Binding affinities of anti-FGFR1 antibodies to FGFR1 were measured by Surface Plasmon Resonance (SPR) using a GE Healthcare BIAcore 4000 instrument as follows. Goat anti-human Fc antibody (Jackson ImmunoResearch Laboratories #109-005-098) was first immobilized on BIAcore carboxymethylated dextran CM5 chip using direct coupling to free amino groups following the procedure described by the manufacturer. Antibodies were then captured on the CM5 biosensor chip to achieve approximately 200 response units (RU). Binding measurements were performed using the running HBS-EP+ buffer. A 2-fold dilution series of His-tagged FGFR1 proteins were injected at a flow rate of 30 μl/min at 25° C. Association rates (kₒₙ, per mol/s) and dissociation rates (koff, per s) were calculated using a simple 1:1 Langmuir binding model (Biacore 4000 Evaluation Software). The equilibrium dissociation constant (KD, mol) was calculated as the ratio of koff/kₒₙ.
(§2) To obtain a finer, residue-level mapping of the epitope and to complement the HD exchange data, molecular modelling and manual inspection of the crystal structure of FGFR1 [(Beenken et al. 2012); PDB record 3OJV] was used to select solvent exposed residues within and around the epitope identified by HD exchange. The selected residues were mutated either to alanine (large to small) or to glycine if the selected residue was alanine. In total 35 point mutants were designed, expressed and purified in HEK cells, and tested for binding to mAb #A08 using surface plasmon resonance as described in Example 1.8. The affinity of the antibody for wild-type and each mutant was determined and used to calculate the contribution of each epitope residue to the binding energy.
(§3) Variant were compared to wild-type D2. The change in the Gibbs free energy of binding of mutant relative to the wild-type D2 construct (ΔΔGₘᵤₜ) was derived from the ratio of the wild-type and mutant KD.

[1] = target: T2, FGFR1 D2 point mutant S45A (human, UniProt P11362 22-254)
T2 chain: T1 sequence with S45A
Protocol: as §1, §2, §3

[2] = target: T3, FGFR1 D2 point mutant L53A (human, UniProt P11362 22-254)
T3 chain: T1 sequence with L53A
Protocol: as §1, §2, §3

[3] = target: T4, FGFR1 D2 point mutant H54A (human, UniProt P11362 22-254)
T4 chain: T1 sequence with H54A
Protocol: as §1, §2, §3

[4] = target: T5, FGFR1 D2 point mutant A55G (human, UniProt P11362 22-254)
T5 chain: T1 sequence with A55G
Protocol: as §1, §2, §3

[5] = target: T6, FGFR1 D2 point mutant V56A (human, UniProt P11362 22-254)
T6 chain: T1 sequence with V56A
Protocol: as §1, §2, §3

[6] = target: T7, FGFR1 D2 point mutant K65A (human, UniProt P11362 22-254)
T7 chain: T1 sequence with K65A
Protocol: as §1, §2, §3

[7] = target: T8, FGFR1 D2 point mutant I91A (human, UniProt P11362 22-254)
T8 chain: T1 sequence with I91A
Protocol: as §1, §2, §3

[8] = target: T9, FGFR1 D2 point mutant Y98A (human, UniProt P11362 22-254)
T9 chain: T1 sequence with Y98A
Protocol: as §1, §2, §3

[9] = target: T10, FGFR1 D2 point mutant S107A (human, UniProt P11362 22-254)
T10 chain: T1 sequence with S107A
Protocol: as §1, §2, §3

B1: mAb #A08 (antibody, V domains shown)
VH: EVQLQESGPGLVKPSGTLSLTCAVSGGSISSNNWWSWVRQPPGKGLEWIGEIYHSGSTSYNPSLKSRVTISVDKSKNQFSLKLNSVTAADTAVYYCARGTDWFDPWGQGTLVTVSS
VL: QAVLTQPPSVSVAPGQTARITCGGNNIGSESVHWYQQKPGQAPVLVVYDDSDRPSGIPERFSGSNSGNTATLTISRVEAGDEADYYCQVWDSTSDHRVFGGGTKLTVL
notes: Only variable domains are tied to the name mAb #A08 (hit); also called #A08 hit; mAb #08
ΔΔGmut (Human FGFR1 D2-His6): 0 kcal/mol | ΔΔGmut [1]: 0.05 kcal/mol | ΔΔGmut [2]: 0.25 kcal/mol | ΔΔGmut [3]: 0.37 kcal/mol | ΔΔGmut [4]: 0.07 kcal/mol | ΔΔGmut [5]: 0.2 kcal/mol | ΔΔGmut [6]: -0.04 kcal/mol | ΔΔGmut [7]: 0 kcal/mol | ΔΔGmut [8]: -0.04 kcal/mol | ΔΔGmut [9]: 0.13 kcal/mol
